Reference: patent publication US20250163117A1 (CURE GENETICS, published 2025)

Columns and labels:
Assay in all cases: cell-based or functional assay
[1] = target: T1, human intermediate-affinity IL-2 receptor IL-2Rβγ on cells (human, UniProt P14784 27-551; P31785 23-369)
T1 sequence (looked up) 1: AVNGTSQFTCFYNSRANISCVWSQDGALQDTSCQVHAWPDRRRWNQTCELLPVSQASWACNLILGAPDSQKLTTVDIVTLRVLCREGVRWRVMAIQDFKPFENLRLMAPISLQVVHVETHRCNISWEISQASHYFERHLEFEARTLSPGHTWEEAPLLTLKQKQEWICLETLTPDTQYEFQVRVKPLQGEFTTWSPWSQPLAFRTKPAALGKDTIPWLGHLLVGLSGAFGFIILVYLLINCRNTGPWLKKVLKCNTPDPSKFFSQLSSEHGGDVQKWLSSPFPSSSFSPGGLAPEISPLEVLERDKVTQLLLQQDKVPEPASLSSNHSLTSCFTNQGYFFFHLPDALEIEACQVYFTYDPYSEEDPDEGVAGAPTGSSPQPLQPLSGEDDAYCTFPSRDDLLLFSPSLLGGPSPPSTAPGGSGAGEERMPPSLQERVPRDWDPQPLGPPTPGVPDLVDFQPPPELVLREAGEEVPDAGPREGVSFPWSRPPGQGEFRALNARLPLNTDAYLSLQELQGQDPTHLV
T1 sequence (looked up) 2: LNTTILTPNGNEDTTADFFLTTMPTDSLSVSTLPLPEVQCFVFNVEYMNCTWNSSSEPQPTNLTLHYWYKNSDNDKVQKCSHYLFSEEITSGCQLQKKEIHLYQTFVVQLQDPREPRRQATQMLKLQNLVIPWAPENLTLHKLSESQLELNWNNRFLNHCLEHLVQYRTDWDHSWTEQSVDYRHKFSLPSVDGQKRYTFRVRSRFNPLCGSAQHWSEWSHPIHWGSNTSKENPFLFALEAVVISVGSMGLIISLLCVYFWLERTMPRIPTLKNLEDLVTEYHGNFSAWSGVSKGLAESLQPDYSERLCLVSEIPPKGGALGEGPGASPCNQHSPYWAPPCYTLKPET

[2] = target: T2, human high-affinity IL-2 receptor IL-2Rαβγ on cells (human, UniProt P01589 22-272; P14784 27-551; P31785 23-369)
T2 sequence (looked up) 1: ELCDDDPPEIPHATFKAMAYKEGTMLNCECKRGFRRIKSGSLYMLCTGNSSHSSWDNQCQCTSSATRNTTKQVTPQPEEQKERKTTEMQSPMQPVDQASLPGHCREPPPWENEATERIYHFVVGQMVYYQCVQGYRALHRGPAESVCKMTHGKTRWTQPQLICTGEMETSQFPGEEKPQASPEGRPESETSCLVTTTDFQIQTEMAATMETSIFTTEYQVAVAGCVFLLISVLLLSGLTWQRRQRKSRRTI
T2 sequence (looked up) 2: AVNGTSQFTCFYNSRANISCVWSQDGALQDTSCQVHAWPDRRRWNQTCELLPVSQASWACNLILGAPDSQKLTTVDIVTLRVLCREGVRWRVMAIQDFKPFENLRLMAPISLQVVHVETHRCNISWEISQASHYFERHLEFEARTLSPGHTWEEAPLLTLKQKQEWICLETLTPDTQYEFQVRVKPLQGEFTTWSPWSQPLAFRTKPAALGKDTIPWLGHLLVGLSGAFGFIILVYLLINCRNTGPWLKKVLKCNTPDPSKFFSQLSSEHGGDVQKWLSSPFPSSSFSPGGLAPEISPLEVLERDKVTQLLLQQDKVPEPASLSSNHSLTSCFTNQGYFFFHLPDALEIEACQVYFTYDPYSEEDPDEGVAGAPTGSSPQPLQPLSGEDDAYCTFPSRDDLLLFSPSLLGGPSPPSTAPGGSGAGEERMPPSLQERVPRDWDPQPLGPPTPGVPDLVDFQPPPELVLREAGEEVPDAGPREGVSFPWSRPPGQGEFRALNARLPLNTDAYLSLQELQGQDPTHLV
T2 sequence (looked up) 3: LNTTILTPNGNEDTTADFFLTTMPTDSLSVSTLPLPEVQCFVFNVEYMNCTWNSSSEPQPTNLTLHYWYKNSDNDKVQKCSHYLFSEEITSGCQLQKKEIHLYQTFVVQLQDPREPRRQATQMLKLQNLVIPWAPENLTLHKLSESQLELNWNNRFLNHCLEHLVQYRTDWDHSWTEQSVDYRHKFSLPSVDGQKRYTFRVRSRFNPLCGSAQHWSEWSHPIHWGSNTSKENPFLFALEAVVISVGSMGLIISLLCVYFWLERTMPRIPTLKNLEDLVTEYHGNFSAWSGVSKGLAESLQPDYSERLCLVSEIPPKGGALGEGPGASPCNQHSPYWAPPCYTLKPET

[3] = target: T3, mouse high-affinity IL-2 receptor IL-2Rαβγ on cells (mouse, UniProt P01590 22-268; P16297 27-539; P34902 23-369)
T3 sequence (looked up) 1: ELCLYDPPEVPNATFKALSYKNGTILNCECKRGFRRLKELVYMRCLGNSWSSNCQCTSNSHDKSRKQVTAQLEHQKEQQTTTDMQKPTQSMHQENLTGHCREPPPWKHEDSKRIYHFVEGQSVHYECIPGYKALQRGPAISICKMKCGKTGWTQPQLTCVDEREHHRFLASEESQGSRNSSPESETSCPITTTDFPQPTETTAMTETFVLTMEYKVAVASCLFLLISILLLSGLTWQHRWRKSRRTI
T3 sequence (looked up) 2: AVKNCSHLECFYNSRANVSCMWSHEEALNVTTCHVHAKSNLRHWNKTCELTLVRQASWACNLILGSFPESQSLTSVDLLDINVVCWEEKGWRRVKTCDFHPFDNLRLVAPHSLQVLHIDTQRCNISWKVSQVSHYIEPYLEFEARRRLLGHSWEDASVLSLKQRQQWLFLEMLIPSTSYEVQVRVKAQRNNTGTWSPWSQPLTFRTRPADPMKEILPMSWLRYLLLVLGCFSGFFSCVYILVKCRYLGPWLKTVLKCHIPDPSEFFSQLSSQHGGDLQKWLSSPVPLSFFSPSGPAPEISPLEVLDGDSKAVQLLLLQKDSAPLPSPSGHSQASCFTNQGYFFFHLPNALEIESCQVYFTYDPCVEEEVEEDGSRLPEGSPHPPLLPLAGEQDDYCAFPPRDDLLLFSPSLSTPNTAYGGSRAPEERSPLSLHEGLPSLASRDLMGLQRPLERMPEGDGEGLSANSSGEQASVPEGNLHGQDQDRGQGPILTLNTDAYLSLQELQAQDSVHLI
T3 sequence (looked up) 3: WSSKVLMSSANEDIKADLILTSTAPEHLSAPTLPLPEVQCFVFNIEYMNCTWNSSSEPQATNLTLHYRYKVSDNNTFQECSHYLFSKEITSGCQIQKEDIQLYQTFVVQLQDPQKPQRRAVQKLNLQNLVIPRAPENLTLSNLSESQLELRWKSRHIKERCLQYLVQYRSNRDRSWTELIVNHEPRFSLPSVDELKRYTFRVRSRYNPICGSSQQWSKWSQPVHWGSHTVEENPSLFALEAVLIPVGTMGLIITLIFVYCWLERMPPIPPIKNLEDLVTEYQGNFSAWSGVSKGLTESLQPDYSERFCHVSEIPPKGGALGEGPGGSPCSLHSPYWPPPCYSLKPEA

[4] = target: T4, mouse intermediate-affinity IL-2 receptor IL-2Rβγ on cells (mouse, UniProt P16297 27-539; P34902 23-369)
T4 sequence (looked up) 1: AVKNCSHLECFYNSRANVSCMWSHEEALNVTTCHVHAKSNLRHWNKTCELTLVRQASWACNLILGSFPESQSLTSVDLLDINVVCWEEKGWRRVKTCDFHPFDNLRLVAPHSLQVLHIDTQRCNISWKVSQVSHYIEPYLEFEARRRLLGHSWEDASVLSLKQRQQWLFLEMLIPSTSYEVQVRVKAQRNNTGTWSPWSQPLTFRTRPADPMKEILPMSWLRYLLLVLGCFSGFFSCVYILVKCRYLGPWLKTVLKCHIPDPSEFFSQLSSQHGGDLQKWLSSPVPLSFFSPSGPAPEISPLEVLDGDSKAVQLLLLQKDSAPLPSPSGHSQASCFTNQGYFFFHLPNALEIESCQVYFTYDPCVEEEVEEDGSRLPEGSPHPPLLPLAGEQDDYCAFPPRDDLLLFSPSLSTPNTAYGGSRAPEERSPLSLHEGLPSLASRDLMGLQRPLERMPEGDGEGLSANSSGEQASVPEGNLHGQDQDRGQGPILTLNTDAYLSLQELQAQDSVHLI
T4 sequence (looked up) 2: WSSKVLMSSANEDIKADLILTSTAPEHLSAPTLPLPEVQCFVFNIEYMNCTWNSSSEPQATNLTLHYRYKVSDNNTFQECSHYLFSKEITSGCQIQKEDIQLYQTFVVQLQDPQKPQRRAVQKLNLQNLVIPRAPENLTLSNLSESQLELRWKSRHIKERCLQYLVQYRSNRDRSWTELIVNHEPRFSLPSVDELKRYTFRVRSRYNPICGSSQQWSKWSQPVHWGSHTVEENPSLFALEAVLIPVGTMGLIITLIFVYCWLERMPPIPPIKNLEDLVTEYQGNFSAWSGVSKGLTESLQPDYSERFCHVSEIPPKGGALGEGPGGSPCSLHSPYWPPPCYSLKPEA

[5] = target: T1, human intermediate-affinity IL-2 …; remark: listed apart in the source
[6] = target: T2, human high-affinity IL-2 receptor …; remark: listed apart in the source

- EC50 of STAT5 activation, human CD8 T cells (flow cytometry) [1]: 18.6 nM
- EC50 of STAT5 activation, human NK cells (flow cytometry) [1]: 5.11 nM
- EC50 of STAT5 activation, human Tregs (flow cytometry) [2]: 7.91 nM
- EC50 of STAT5 activation, mouse Tregs (flow cytometry) [3]: 52 nM
- EC50 of STAT5 activation, mouse CD8 T cells (flow cytometry) [4]: 91.8 nM
- EC50 of STAT5 activation, mouse NK cells (flow cytometry) [4]: 84 nM
- % pSTAT5 in human PBMC at High IL-2v concentration (25 nM per paragraph 254); western blot, pSTAT5/STAT5 normalised to 001 High [5]: 66.9%
- % pSTAT5 in human PBMC at Low IL-2v concentration (2.5 nM per paragraph 254); western blot, pSTAT5/STAT5 normalised to 001 High [6]: 10.9%
B1: CP-trIL-2 012 (ligand)
chain: PTSSSTKKTQLQLEHLLLDLQMILNGINNYKNPLRPRDLISNINVIVLELKGSETTELKHLQSLEEELKDLEEVLNLAQSKNFHTIVEFLNRWITFSQSIISTLT
notes: H1-H3-H2-H4; loops 1 and 2 removed; de-Ala1, C58S, C125S, P65D
